Data from the DeepSol protein solubility set.

Assay: soluble on expression in E. coli; label from the status in PepcDB or PDB records

Row | Sequence | soluble on expression in E. coli
1 | MKYTQSFCFVSVIVLSSSVHLHGQNNKMNVLLIIADDMRPELGCYGIEDIVTPRLDSLARYATVFQNAYCNIPVSGASRASLFTGMYPRYPNRFTAFDASAEKDCPEALSLPECFKKNGYYVVSNGKVFHNITDHADSWSEAPWRVHPDGYGKDWAEYNKWELWQNEESSRYVHPKTLRGPFCESADVADTTYIDGRVAQKTIADLRRLHKKEKPFFLACGFWKPHLPFNAPKKYWDLYRREEIHLAQNPYRPKALPKQVTSSGEIRGYGKFVTTKDETFQREAKHGYYACVSYIDAQIGLILDELDRLGLSENTIVVILGDHGWHLGEHGFWGKHNLMNHATRAPLIVRVPHCRGGKAKGIVEFVDIYPTLCELCGVPMPKDQLQGKSFVPILQDSGKKTKQYAFIQWKGGYNIVSEQYSSTIWLQGDSVVARMIFDRQLDASENENKVHCPYLSRERDKLEAQIKIRKSQLLEHHHHHH | not soluble
2 | MTTNPIELESCIIDQIRCPECALTCLQKNIYRHMTQIHNWTTEDCQELIAAIKSEKKSRASSTSFVCCHCRMIFRSVKHLVQHKKMCTEQPQHDNEHLDVYIDEMIVEGEEEVVGINEYDINETKESTQKPSTSSGDSFEMNIPPHRQASRPIQPHHLTQECQIATIIEKPSKFSLMQLPGKYRGCNLKCPECSSTSESLDEFLLHCRQEHMSHDQKFNLEREFFQSRDQFKEWFDQRQEDTCTSLTKRTGHAGETLYRCHRVGKYQSVAKSRKSNPRKIDQTCTAYLKVTTEEDGSTWATGCFTHIGHDLDHKLLWLTESQEKYVRELIDLGWTSDQIFFFIRNEYKDYECKLKYISKNDIRNITVRYNREREKLGFLTDTAKSSAIPISLKERRAVAADSTKEPREEDDDEVKAKIPRMQSKPDNIEKATTSENNSAKHREQVVDSETAEEDEYINVVDVDTMPPNDAGKITIGLNF | not soluble
3 | MAHHHHHHMMRRVPITVSFDALDTLIQITRGLGYQYRSSYASFLLAHGIDLDATCPNATCEAVQELALKAIRDQVRAERAAWTRSANPKEMPIGGDTDEELRSFWARVLRQTYTCATLYDGAAADVVQRIEELWGDHHNEVRCFEDYVLFDQFSSTKAHSWCPEGLRTLQCLRKWNQVQMSCDESAVRPGLADTKPASDLDVFSPSSAAASPVLFLAAPPFVVSNMDPRIRGVFMQLGAFEAGESGEPPLLSRIISARDTGYAKPSPAGILTGVRDIAASYRAACQSCGACDAGVDVHRHVHVGDADADRVACERAGCHFVQCDPATGVTWGLLQAKLQELEALYGSAPLPH | not soluble
4 | MGSDKIHHHHHHMADKRTEGSGKGGAKAAGKGGLGEVVLLSGGNPQIAKGYGDAPVQAYIAAMPGWKRAVGERLDAIVERTVPGVYKAVKWNSPFYGFEGEGWFLSFHCMTKYIKVAFFRGASLQPLPPGASKQKDVRYLDIYEDAPFDEARFADWVAQASRLPGERM | not soluble
5 | MGHHHHHHSHMPYLVIEHLEDISEWLLLEYKHVAQWWGDKLIFTNVKPKERKILAEIGSVVTESITKLPVDRSKVIVLDLQAKEELKPEDISEDTIIVVGGILGDAIPRGRTRKLITSKMEGVKVRHIGRPQFSIDGASIIAKLISEGKRLEEIEYEENPTIKLDEFSEITFHYAVPKLNGKLLLTPGLIELQKKELGYLEEDEDDGLIEFFEGKGEL | soluble
6 | MGSDKIHHHHHHMTALVCLTGSSCTDDENNGQGNNIIYGENIIGNGEQTFEIKDHQYLKRGTYLMKGWCYVTYGSTLTIEAGTVIKGDKETRAALIVEPGGKLIARGTVDAPIVFTSEMPAGKRKPGDWGGLILCGYARNNEDIMQIEGGPRTMHGGPNNADNSGVLSYVRVEFAGYPFKKNQEINGITFGSVGNGTQIDHLQVSYANDDAFEWFGGTVHAEYLVAYHCWDDDFDIDNGYSGTCRHLLGIRHPRIADITGSHAFECSNNGTNTPATPTTAATFEDVTIYGPASGDASFVNHPDFINGGGLRPENESMLGLFGAALYMGNNTSVTFRNCRISGYPSDMEGTPASADNVVFSEREETGYPEWTQGWCNFNPQETEY | not soluble
7 | MSLQNRIMITGAGSGLGREMALRWAREGWRLALSDINDAGLQETLALVREAGGDGFVQRCDVRDYSQLTAFAQTCEERFGGMDIIVNNAGVASGGFFNELSLEDWDWQIAINLMGVVKGCKAFLPMLQASKGKIINIASMAALMQAPAMSNYNVAKAGVVALSESLLVELRDQDVGVHVVCPSFFQTNLLDSFRGPTPAMKAQIGRLLEKSPITATDIADYIFTQVAEGEFMILPHEEGRLAWDMKRQQPQAMYDEMTVMCAKMRAKAQKGEGHHHHHH | soluble
8 | MGSDKIHHHHHHMVGALAILMVGYSAAEAGGLRDLLEQGGLSAKVDCVAMADMLPGRLQQQEWDLVLTDDRPDLSAAQVLGLLARLGLDVPVIALVSRQDEQAAAHLIAAGVQDVLLKSDPVQLMATIRGCQRYIGHLRDLREAQLALERSEARFRAIASNLPGLVFQFVLESDGSVFFPYVSEGSRSLLGLSPDYLQKKPNSFARLIVATDVASYDQSLQDSCEHLSAWNWEGRIQAKGDMDVKWISLRATPRRTPRGAVLWDGIMLNITRNKQIELEIARSRAQLEELSAYSQKAKEQERTRIAREIHDDIGGTLTAIKCELVPCLDNSSRTPEFYRNKAEAVESLVDMVIDSTRRIALDLRPGVLDCGIVAAVQWQAREFNQRTGVSCTVACDYEDISLDGDLAVAIFRIFQEALTNIAKHANASEVRVKLAETGSQVYLEVTDNGCGITNPDMEKVNSFGIRSMRERCQQLGGQFHIQGGPLAGTEVLIRIPVNGQSTVGRESRLN | not soluble
9 | MCTQDEECSAPGGDKGKEKEEHTVVPRGKEEKEKKPGTKPSPISPAFKGTPKERPNCGKTKNETSGKKLRSNDVSPDVKDRLQLSEHGPSKTCIKDFQWLEDFITKMPCFHGFIGREDLMSVLKNVGDFLIRTSVQPNKHEVEKMKKNQADVKVLGNLSREKCAKKEKEKEEKLAGMGDVGRREFVISVYCKDKEKPATDKPQYTPIRNLVIKRDNGMVHVEPLRKFKTLTEFFGYYQKNSGICKETDFQLITPIPLSNWEFIHEDIALQQKKLGEGAFGEVRIGKMKLKSTKKTVEVAVKMLRNAEVVIREQVGELLHEARVMRMMDHKNVLRSYGIAVLKEPLYLMTEMCACGALREYLRENQETVTLAEKLFFVVGSSRGVQYLHSQKTIHRDLAVRNILLSEDRTPKISDFGLAKISERYEMKEQCKIPVRYLAPETLESFIFTTKTDVFSFGCVIWEIYENGNQPHDGKNAQTIRNLTKKNQFLKLTNSAPSELRKLIEERVFTSDPENRCSMTTIVQCAEKIEKPPVGMK | not soluble
10 | EITPLFFQKELATPVDNLKPYTALQMEGRDIYIREGCSNCHSQMIRPFRAETERYGHYSVAGESVWEHPFLWGSKRTGPDLARVGGRYSDDWHIAHLTDPRSVVPESNMPAYSWLNTDTLDGELTGKKLATFNFLTRNRSHKDENGNAIPLYTQAEIDGAKDAVKGKTEMSALIAYLQSLGH | not soluble
11 | PCFALTSPEAGSDAGSIPDYGVVCKGEWEGKEVLGMRLTWNKRYITLAPVATVLGLAFKLRDPEGLLGDKEDLGITCALIPTDVKGVEIGNRHFPLNVPFQNGPTRGKDIFVPIDFIIGG | not soluble
12 | MVFNRVVQIGRVVFIASGKDQGKLAAIVNVIDGNRVQIDGPSSDVTRTVRNLKDLQLTKFVLKLRVGQRTKGVKAAFDAAKVTENFQKTQWAKKIAQRAIRAKLTDFERYKLMKAKQMRNRIVRVELAKLKKAQK | not soluble
13 | MENLKNIQPREDFNWEEFEAGGVHAAVSRQEQEAAYDKTLNTIKEKEVVMGRVTAINKREVVINVGYKSEGVVPATEFRYNPELKVGDEVEVYIENQEDKKGQLVLSHRKARAARSWERVNEALEKDEIVKGYVKCRTKGGMIVDVFGIEAFLPGSQIDVRPIRDYDAFVEKTMEFKIVKINQEYKNVVVSHKVLIEAELEQQKKEII | not soluble
14 | AHHHHHHGSVKHYSVKVITAKSRTRLGLQLADARINELFNMIQDKTLRRDPLLISRRLVPSWATLNSFMLYFGLILAKEEVSISCTLESAT | not soluble
15 | MSLYATMESVRLQSEAQQLAEMILQSETAENYRNCYKRLQEDEEAGRIIRSFIKIKEQYEDVQRFGKYHPDYREISRKMREIKRELDLNDKVADFKRAENELQSILDEVSVEIGTAVSEHVKVPTGNPYFDGLSSCGGGCGSGGSCGCKVSEGHHHHHH | soluble
